Kd data for three molecules are collected here from paper PMC3642155.

Sequences and labels used below:
B1: T06 (structured_RNA)
RNA: GAGGAUGGCAGCGGAGAGGAAUGGUGUAGUGUAAGUCAAUUCUACUUUCGUUGCAGCCCACACCACUCUCC

For the data set, the target named is T7 RNA polymerase (UniProt P00573 1-883). As to the kind of experiment: filter binding.
Chain of T7 RNA polymerase (P00573 whole entry): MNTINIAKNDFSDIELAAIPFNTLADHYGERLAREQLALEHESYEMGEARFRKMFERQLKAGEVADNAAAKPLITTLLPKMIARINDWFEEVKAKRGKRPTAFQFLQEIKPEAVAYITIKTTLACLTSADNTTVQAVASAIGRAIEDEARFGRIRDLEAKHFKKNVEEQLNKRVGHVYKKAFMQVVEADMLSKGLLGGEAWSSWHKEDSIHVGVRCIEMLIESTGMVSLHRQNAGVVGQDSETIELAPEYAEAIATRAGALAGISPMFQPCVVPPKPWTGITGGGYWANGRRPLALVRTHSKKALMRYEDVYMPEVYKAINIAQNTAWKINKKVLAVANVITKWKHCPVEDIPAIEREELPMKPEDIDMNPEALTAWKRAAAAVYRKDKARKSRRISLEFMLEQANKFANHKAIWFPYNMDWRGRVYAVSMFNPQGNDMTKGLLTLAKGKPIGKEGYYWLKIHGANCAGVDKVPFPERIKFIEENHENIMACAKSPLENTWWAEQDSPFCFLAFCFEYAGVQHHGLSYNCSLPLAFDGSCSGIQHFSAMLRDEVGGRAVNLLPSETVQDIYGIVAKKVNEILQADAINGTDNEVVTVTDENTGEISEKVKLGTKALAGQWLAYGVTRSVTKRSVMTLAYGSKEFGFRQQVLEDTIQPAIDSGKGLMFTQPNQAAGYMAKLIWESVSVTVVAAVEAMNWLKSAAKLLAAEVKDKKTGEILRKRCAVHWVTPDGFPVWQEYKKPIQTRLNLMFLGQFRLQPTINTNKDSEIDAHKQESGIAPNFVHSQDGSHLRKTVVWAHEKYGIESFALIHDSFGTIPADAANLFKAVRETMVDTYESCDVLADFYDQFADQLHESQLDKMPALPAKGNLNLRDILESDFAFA
For GCGUAAGUCAAUUCCACUAUCAUUGCUGC (structured_RNA) [T230-29], the Kd came to 2.9 ± 0.9 nM.

As for B1, the Kd was determined as 8 ± 2.4 nM.

For GUGUAGUGUAAGUCAAUUCUACUUUCGUUGCAGCCCAC (structured_RNA) [T06-38], the equilibrium dissociation constant (Kd) is 10.5 ± 2.1 nM.

A word on the Kd: it is the free concentration of one partner at which half of the binding sites on the other are occupied at equilibrium, for simple one-to-one binding. A high value points to lower affinity.
